Assay results from paper PMC9199185, “The Importance of the C-Terminal Cys Pair of Phosphoribulokinase in Phototrophs in Thioredoxin-Dependent Regulation” (Plant and Cell Physiology, 2022).

Experiments:
purified protein [1] = substrate: Nc1ncnc2c1ncn2[C@@H]1O[C@H](COP(=O)(O)OP(=O)(O)OP(=O)(O)O)[C@@H](O)[C@H]1O; assay: purified protein; assay type: biochemical, Nostoc sp. PCC 7120 = FACHB-418; details: reduced form (pretreated with 50 mM DTTred), ATP varied 0-2 mM, 2 mM ribose 5-phosphate plus ribose 5-phosphate isomerase, 10 mM MgCl2, 100 mM KCl, pH 7.5, 30 °C
purified protein [2] = substrate: Nc1ncnc2c1ncn2[C@@H]1O[C@H](COP(=O)(O)OP(=O)(O)OP(=O)(O)O)[C@@H](O)[C@H]1O; assay: purified protein; assay type: biochemical, Arabidopsis thaliana; details: reduced form (pretreated with 50 mM DTTred), ATP varied 0-2 mM, 2 mM ribose 5-phosphate plus ribose 5-phosphate isomerase, 10 mM MgCl2, 100 mM KCl, pH 7.5, 25 °C

B1: A.7120_PRK (Nostoc sp. PCC 7120 = FACHB-418) (protein)
chain: MTTKPERVVLIGVAGDSGCGKSTFLRRLIDLFGEEFMTVICLDDYHSLDRKQRKETGITALDPRANNFDLMYEQIKALKEGQTINKPIYNHETGLIDPPEIVKPNHIVVVEGLHPLYDERVRSLLDFSVYFDISDEVKIAWKIQRDMAERGHRYEDVLAAINSRKPDFQKYIEPQREFADVVLQVLPTNLIKDDTERKVLRVRMLQREGKEGFEPAYLFDEGSTINWTPCGRKLTCSYPGMQLYYGSDVYYGRYVSVLEVDGQFDNLEEVIYIETHLSNTSTKYQGELTQLLLQHREYPGSNNGTGFFQVLTGLKMRAAYERLTTKEAKLAVQV
notes: recombinant in E. coli BL21(DE3), pET-21a; no tag stated; Cys pairs Cys19/Cys41 and Cys230/Cys236
Protein B1 has a Km (purified protein [1]) of 109 ± 4.5 µM and a Vmax (purified protein [1]) of 214 µmol/min/mg.

B2: AtPRK (Arabidopsis thaliana) (protein)
chain: AQETIVIGLAADSGCGKSTFMRRLTSVFGGAAKPPKGGNPDSNTLISDTTTVICLDDYHSLDRYGRKEQKVTALDPRANDFDLMYEQVKALKNGIAVEKPIYNHVTGLLDPPELIQPPKILVIEGLHPMFDERVRDLLDFSIYLDISNEVKFAWKIQRDMAERGHSLESIKASIEARKPDFDAFIDPQKQYADAVIEVLPTTLIPDDNEGKVLRVRLIMKEGVKYFSPVYLFDEGSTISWIPCGRKLTCSYPGIKFNYEPDSYFDHEVSVLEMDGQFDRLDELIYVESHLSNLSTKFYGEVTQQMLKHADFPGSNNGTGLFQTIVGLKIRDLYEQLIANKATARAEAKA
notes: recombinant in E. coli BL21(DE3), pET-21a; no tag stated; dimer, calculated 79,000
B2 showed a Km (purified protein [2]) of 46.5 ± 6.5 µM and a Vmax (purified protein [2]) of 289 µmol/min/mg.
